Experiment [1] addresses HLA-B*40:01. Briefly: IEDB peptide-MHC binding, purified MHC/competitive/radioactivity; ≥ and ≤ were set here for values at or beyond the usual limits of such assays. Conditions: source organism: Mammarenavirus guanaritoense.
The target of experiment [2] is HLA-B*40:02. The description is as above. Conditions: source organism: Mammarenavirus guanaritoense.
The target of experiment [3] is HLA-B*44:03. Briefly: IEDB peptide-MHC binding, cellular MHC/competitive/fluorescence; ≥ and ≤ were set here for values at or beyond the usual limits of such assays. Conditions: source organism: Mammarenavirus guanaritoense.
In experiment [4] the target is HLA-B*18:01. Described as above. As to conditions: source organism: Mammarenavirus guanaritoense.
In experiment [5] the target is HLA-B*44:02. The description is as above. Conditions: source organism: Mammarenavirus guanaritoense.
The target of experiment [6] is HLA-B*45:01. The description is as above. As to conditions: source organism: Mammarenavirus guanaritoense.
For experiment [7], the target named is HLA-A*31:01. Briefly: IEDB peptide-MHC binding, purified MHC/competitive/radioactivity; ≥ and ≤ were set here for values at or beyond the usual limits of such assays. Conditions: source organism: Mammarenavirus lassaense.
For experiment [8], the target named is HLA-A*11:01. The description is as above. Conditions: source organism: Mammarenavirus lassaense.
The target in experiment [9] is HLA-A*33:01. Described as above. Conditions: source organism: Mammarenavirus lassaense.
The target of experiment [10] is HLA-A*68:01. Briefly: IEDB peptide-MHC binding, cellular MHC/competitive/fluorescence; ≥ and ≤ were set here for values at or beyond the usual limits of such assays. Conditions: source organism: Mammarenavirus lassaense.
Experiment [11] deals with HLA-B*27:05. Briefly: IEDB peptide-MHC binding, purified MHC/competitive/radioactivity; ≥ and ≤ were set here for values at or beyond the usual limits of such assays. Conditions: source organism: Mammarenavirus choriomeningitidis.
Experiment [12] has as its target HLA-B*54:01. The description is as above.
For experiment [13], the target named is HLA-B*35:01. Described as above.
The target in experiment [14] is HLA-B*53:01. Described as above.
In experiment [15] the target is HLA-B*51:01. Nature of the experiment: IEDB peptide-MHC binding, cellular MHC/competitive/fluorescence; ≥ and ≤ were set here for values at or beyond the usual limits of such assays.
The target of experiment [16] is HLA-B*07:02. The description is as above.
Experiment [17] concerns the target HLA-A*02:06. Nature of the experiment: IEDB peptide-MHC binding, purified MHC/competitive/radioactivity; ≥ and ≤ were set here for values at or beyond the usual limits of such assays. As to conditions: source organism: Vaccinia virus WR.
In experiment [18] the target is HLA-A*02:03. Described as above. As to conditions: source organism: Vaccinia virus WR.
The target in experiment [19] is HLA-A*02:02. The experiment is described as above. As to conditions: source organism: Vaccinia virus WR.
Experiment [20] addresses HLA-A*30:02. Described as above. Conditions: source organism: Vaccinia virus WR.
The target in experiment [21] is HLA-A*26:01. Described as above. Conditions: source organism: Vaccinia virus WR.
The target in experiment [22] is HLA-A*01:01. Briefly: IEDB peptide-MHC binding, cellular MHC/competitive/fluorescence; ≥ and ≤ were set here for values at or beyond the usual limits of such assays. Conditions: source organism: Vaccinia virus WR.
The target in experiment [23] is HLA-A*02:01. Described as above. Conditions: source organism: Vaccinia virus WR.
For experiment [24], the target named is HLA-A*29:02. The experiment is described as above. As to conditions: source organism: Vaccinia virus WR.
The target of experiment [25] is HLA-A*68:02. Described as above. Conditions: source organism: Vaccinia virus WR.
Experiment [26] has as its target HLA-A*24:02. The experiment is described as above. Conditions: source organism: Vaccinia virus WR.
Experiment [27] has as its target HLA-A*23:01. The description is as above. As to conditions: source organism: Vaccinia virus WR.
In experiment [28] the target is HLA-A*01:01. Briefly: IEDB peptide-MHC binding, purified MHC/competitive/radioactivity; ≥ and ≤ were set here for values at or beyond the usual limits of such assays. As to conditions: source organism: Vaccinia virus WR.
In experiment [29] the target is HLA-A*02:01. Described as above. As to conditions: source organism: Vaccinia virus WR.
For experiment [30], the target named is HLA-A*29:02. The experiment is described as above. Conditions: source organism: Vaccinia virus WR.
Experiment [31] concerns the target HLA-A*68:02. Described as above. Conditions: source organism: Vaccinia virus WR.
The target of experiment [32] is HLA-A*23:01. Described as above. Conditions: source organism: Vaccinia virus WR.
[33] abbreviates: source organism: Mammarenavirus lassaense.
Where [34] appears, read: source organism: Mammarenavirus machupoense.

pIC50: −log10 of the molar value.

What is called pIC50 is the negative decadic logarithm of the IC50, by convention in mol/L. Take ADKNLIKCS: the pIC50 in [1] is 6.50; in [2], 6.99; in experiment [3], ≤ 4.15; in experiment [4] it was ≤ 4.15; in [5], ≤ 4.15; in experiment [6], ≤ 4.15.
In the case of ALMSIISTFH, the pIC50 in experiment [7] is 5.43; in [8], 6.21; in experiment [9] it was 5.44; in experiment [10] it was 4.62.
Take IIVLIIITSI: the pIC50 in experiment [11] is 5.73.
Take MCISLSTAI: the negative-log IC50 (pIC50) in experiment [12] (setting [33]) was 6.72; in experiment [13] (setting [33]), 6.68; in [14] (setting [33]), 5.85; in [15] (setting [33]), 5.17; in [16] (setting [33]), 4.62.
As for MLNNSFYYM, the pIC50 was 5.30 in [12] (setting [34]); 6.30 in experiment [13] (setting [34]); 6.07 in [14] (setting [34]); 5.16 in experiment [15] (setting [34]); 4.53 in experiment [16] (setting [34]).
Turning to NQGNILMDSI, the pIC50 is 5.51 in experiment [17]; 5.39 in experiment [18]; 5.41 in experiment [19]; 5.40 in [20]; 5.56 in experiment [21]; 4.62 in experiment [22]. In addition, the pIC50 in experiment [23] is 5.01; in experiment [24], 5.13; in [25], 4.56; in experiment [26], 4.17; in experiment [27], ≤ 4.15.
With SQIFNIISYI, the pIC50 is 6.10 in experiment [28]; 6.95 in [29]; 7.64 in [17]; 5.94 in experiment [30]; 7.32 in [31]; 6.74 in [18]. The pIC50 in [32] was 5.62; in [19] it was 7.21; in experiment [20], 6.17; in experiment [21] it was 6.40; in [26], 5.02.

The values above are taken from the Immune Epitope Database (IEDB).
